{
  "source": "patent US20250388673A1",
  "about": "(HIFIBIO, published 2025)",
  "binders": {"B1": {"name": "HFB6-4hz20-hG1 (antibody, human IgG1, V domains shown)", "VH": "QVQLVQSGAEVKKPGASVKVSCKTSGFNIKDTYIHWVRQAPGQGLEWIGRNDPANGNTKYAQKFQGRVTMTADTSTSTVYMELSSLRSEDTAVYYCASYEGYYERFGYWGQGTLVTVSS", "VL": "DIVMTQSPDSLAVSLGERATINCKSSQSLLDRDGKTYLNWLQQKPGQSPKRLIYLVSKLDSGVPDRFSGSGSGTDFTLTISSLQAEDLAVYYCWQDTHFPYTFGQGTKLEIK", "notes": "Humanized variant of HFB6-4, human IgG1 (hG1)"}},
  "target": "T1, human BTLA (human, UniProt Q7Z6A9 31-289)",
  "T1 construct": "also called hBTLA; HEK293.hBTLA",
  "T1 sequence": "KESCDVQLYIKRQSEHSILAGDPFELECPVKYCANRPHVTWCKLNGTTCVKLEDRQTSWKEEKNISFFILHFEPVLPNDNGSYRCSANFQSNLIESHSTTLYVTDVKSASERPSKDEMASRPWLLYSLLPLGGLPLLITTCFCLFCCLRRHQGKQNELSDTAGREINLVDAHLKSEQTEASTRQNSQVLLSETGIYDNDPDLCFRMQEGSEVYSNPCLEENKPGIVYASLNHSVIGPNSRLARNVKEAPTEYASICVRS",
  "test": "flow cytometry, HEK293 cells overexpressing human BTLA",
  "experimental": "HEK293 cells overexpressing human BTLA and Expi293 cells overexpressing cynomolus BTLA were incubated with different concentrations of humanized anti-BTLA antibodies. Anti-BTLA antibody binding to target cells were quantified with an AF647-conjugated anti-human IgG Fc secondary antibody by flow cytometry.",
  "data": [
    {"binder": "B1", "values": [
      {"measurement": "binding result", "result": "binds"}
    ]}
  ]
}
